Tests used:
[1] = target: NKTT120 (human (humanized antibody)); test: SPR; Biacore 3000; NKTT120 immobilised on the chip; FcγRI, FcγRIIIa or C1q as analyte at six different concentrations; BiaEvaluation software
[2] = target: NKTT120 (human (humanized antibody))

Sequence of NKTT120 (human (humanized antibody)) (heavy, as listed by the source, chain 1 of 2): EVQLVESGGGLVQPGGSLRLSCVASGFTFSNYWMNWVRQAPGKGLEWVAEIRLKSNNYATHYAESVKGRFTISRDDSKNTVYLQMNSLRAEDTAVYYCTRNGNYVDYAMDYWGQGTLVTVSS
Sequence of NKTT120 (human (humanized antibody)) (light, as listed by the source, chain 2 of 2): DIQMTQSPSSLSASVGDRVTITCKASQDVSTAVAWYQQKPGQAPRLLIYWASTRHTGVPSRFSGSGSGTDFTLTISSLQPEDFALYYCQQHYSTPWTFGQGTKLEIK
Sequence of FcγRIIIa (P08637 17-254): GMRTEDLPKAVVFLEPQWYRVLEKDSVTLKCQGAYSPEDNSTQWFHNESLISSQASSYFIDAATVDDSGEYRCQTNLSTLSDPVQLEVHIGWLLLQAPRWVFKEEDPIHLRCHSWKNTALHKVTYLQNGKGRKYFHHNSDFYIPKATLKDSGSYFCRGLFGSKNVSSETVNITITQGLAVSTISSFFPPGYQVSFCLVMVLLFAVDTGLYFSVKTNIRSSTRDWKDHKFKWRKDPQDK
Sequence of FcγRI (P12314 16-374): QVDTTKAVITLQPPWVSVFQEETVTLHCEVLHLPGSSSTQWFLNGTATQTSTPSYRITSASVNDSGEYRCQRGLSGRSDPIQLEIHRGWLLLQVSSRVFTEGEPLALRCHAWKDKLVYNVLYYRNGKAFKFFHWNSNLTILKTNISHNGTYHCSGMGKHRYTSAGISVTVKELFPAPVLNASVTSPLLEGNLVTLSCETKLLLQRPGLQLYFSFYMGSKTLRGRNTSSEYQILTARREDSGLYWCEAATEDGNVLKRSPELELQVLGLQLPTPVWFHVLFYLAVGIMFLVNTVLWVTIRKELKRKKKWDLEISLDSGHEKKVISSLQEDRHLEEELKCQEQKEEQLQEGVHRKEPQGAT

Row | Substance | Kd [1] | ADCC, cell killing of iTCR-expressing target cells by CD16-transduced NK-92 effector cells (E:T 60:1), NKTT120 at 1 and 20 µg/ml (34% to 44%) [2]
1 | FcγRI (from UniProt P12314 16-374) (receptor) | 12 nM | 
2 | FcγRIIIa (from UniProt P08637 17-254) (receptor) | 122 nM | 44%

From paper PMC3785425
